Experimental data: the supplement of paper PMC9112550, “Optimization of the antimicrobial peptide Bac7 by deep mutational scanning” (BMC Biology, 2022)

System: Escherichia coli TOP10
Experiment: shrunken log2 fold change of peptide-encoding DNA abundance (4.5 h post-induction vs induction); higher = less antimicrobial activity (less host growth inhibition)
Conditions: time post-induction: 4.5 h; library: site-saturation at positions 5, 18, 19, 20
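Further: peptides expressed intracellularly from a pBAD plasmid library in pooled LB shake-flask culture, induced with 0.3% L-arabinose, DNA abundance read by NGS, three biological replicates, DESeq2 with apeglm shrinkage.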

Sequence | shrunken log2 fold change
RRIRKRPPRLPRPRPRPGEGPRP | 0.0997
RRIRPRPPRLPRPRPRPTKKPRP | 0.0418
RRIRTRPPRLPRPRPRPNMYPRP | -0.637
RRIRSRPPRLPRPRPRPQNPPRP | -0.296
RRIRLRPPRLPRPRPRPTPIPRP | 0.3
RRIRYRPPRLPRPRPRPCTRPRP | -0.111
RRIRFRPPRLPRPRPRPVHPPRP | 0.037
RRIRCRPPRLPRPRPRPCVCPRP | -0.128
RRIRGRPPRLPRPRPRPTACPRP | 1.35
RRIRFRPPRLPRPRPRPMTDPRP | -0.269
RRIRKRPPRLPRPRPRPRGMPRP | 0.357
RRIRSRPPRLPRPRPRPGKDPRP | 0.099
RRIRPRPPRLPRPRPRPMGTPRP | 0.0218
RRIRIRPPRLPRPRPRPLIIPRP | -0.652
RRIRIRPPRLPRPRPRPENDPRP | -0.312
RRIRARPPRLPRPRPRPQVSPRP | -0.156
RRIRLRPPRLPRPRPRPVKPPRP | 0.0377
RRIRPRPPRLPRPRPRPPGTPRP | 0.317
RRIRRRPPRLPRPRPRPSYDPRP | -0.434
RRIRPRPPRLPRPRPRPWIKPRP | -0.0265
RRIRSRPPRLPRPRPRPLMKPRP | 0.0556
RRIRTRPPRLPRPRPRPPTWPRP | 0.0779
RRIRERPPRLPRPRPRPNGAPRP | 0.0556
RRIRARPPRLPRPRPRPFMVPRP | -0.235
RRIRDRPPRLPRPRPRPLVKPRP | 0.0947

Sequence | shrunken log2 fold change
RRIRQRPPRLPRPRPRPPFMPRP | 0.213
RRIRSRPPRLPRPRPRPCKAPRP | 0.00989
RRIRRRPPRLPRPRPRPIDLPRP | -0.115
RRIRSRPPRLPRPRPRPTWYPRP | -0.123
RRIRNRPPRLPRPRPRPSSWPRP | 0.0908
RRIRGRPPRLPRPRPRPSTDPRP | 0.899
RRIRWRPPRLPRPRPRPNIQPRP | -0.0736
RRIRTRPPRLPRPRPRPMETPRP | 0.0774
RRIRSRPPRLPRPRPRPRGLPRP | 0.461
RRIRIRPPRLPRPRPRPQCQPRP | -0.153
RRIRLRPPRLPRPRPRPWWLPRP | -0.0334
RRIRPRPPRLPRPRPRPCHSPRP | -0.871
RRIRVRPPRLPRPRPRPFNIPRP | -0.425
RRIRYRPPRLPRPRPRPESDPRP | 0.03
RRIRKRPPRLPRPRPRPVFVPRP | 0.141
RRIRLRPPRLPRPRPRPIDNPRP | -0.421
RRIRYRPPRLPRPRPRPTDMPRP | 0.00219
RRIRGRPPRLPRPRPRPELIPRP | 0.408
RRIRGRPPRLPRPRPRPWIEPRP | -0.0591
RRIRDRPPRLPRPRPRPHCGPRP | 0.00511
RRIRSRPPRLPRPRPRPTTAPRP | 0.155
RRIRRRPPRLPRPRPRPDTFPRP | 0.025
RRIRPRPPRLPRPRPRPVEYPRP | -0.156
RRIRYRPPRLPRPRPRPRDSPRP | -0.269
RRIRQRPPRLPRPRPRPSDKPRP | -0.341

Sequence | shrunken log2 fold change
RRIRTRPPRLPRPRPRPHWQPRP | -0.0496
RRIRLRPPRLPRPRPRPEQFPRP | -0.141
RRIRQRPPRLPRPRPRPDARPRP | 0.422
RRIRRRPPRLPRPRPRPFTDPRP | -0.0197
RRIRMRPPRLPRPRPRPSNQPRP | -0.0365
RRIRPRPPRLPRPRPRPRSRPRP | 0.386
RRIRRRPPRLPRPRPRPPDNPRP | 0.548
RRIRWRPPRLPRPRPRPAARPRP | 0.622
RRIRWRPPRLPRPRPRPSALPRP | 0.678
RRIRVRPPRLPRPRPRPDYHPRP | -0.558
RRIRKRPPRLPRPRPRPWSIPRP | -0.304
RRIRKRPPRLPRPRPRPMIDPRP | 0.21
RRIRGRPPRLPRPRPRPCHRPRP | 0.207
RRIRYRPPRLPRPRPRPIEQPRP | -0.00931
RRIRQRPPRLPRPRPRPLSFPRP | -0.415
RRIRTRPPRLPRPRPRPYLNPRP | -0.484
RRIRVRPPRLPRPRPRPDRFPRP | 0.0559
RRIRIRPPRLPRPRPRPQIQPRP | -0.235
RRIRVRPPRLPRPRPRPHITPRP | -0.643
RRIRPRPPRLPRPRPRPEMDPRP | 0.116
RRIRPRPPRLPRPRPRPMTYPRP | -0.437
RRIRNRPPRLPRPRPRPRLLPRP | 0.0984
RRIRFRPPRLPRPRPRPADDPRP | -0.053
RRIRWRPPRLPRPRPRPMYAPRP | 0.325
RRIRMRPPRLPRPRPRPRRYPRP | 1.15

Sequence | shrunken log2 fold change
RRIRRRPPRLPRPRPRPFRFPRP | 0.506
RRIRNRPPRLPRPRPRPGFPPRP | -0.00149
RRIRCRPPRLPRPRPRPKCFPRP | -0.372
RRIRKRPPRLPRPRPRPKRPPRP | 0.552
RRIRCRPPRLPRPRPRPMKQPRP | -0.436
RRIRRRPPRLPRPRPRPKLQPRP | 0.179
RRIRYRPPRLPRPRPRPTCFPRP | -0.222
RRIRERPPRLPRPRPRPKSNPRP | -0.472
RRIRYRPPRLPRPRPRPRKQPRP | -0.129
RRIRIRPPRLPRPRPRPKHIPRP | -0.765
RRIRIRPPRLPRPRPRPFEQPRP | -0.0348
RRIRDRPPRLPRPRPRPHSYPRP | -0.0739
RRIRQRPPRLPRPRPRPHTYPRP | -0.753
RRIRGRPPRLPRPRPRPYILPRP | -0.614
RRIRWRPPRLPRPRPRPATVPRP | 0.111
RRIRSRPPRLPRPRPRPLSEPRP | -0.48
RRIRIRPPRLPRPRPRPNFCPRP | -0.162
RRIRDRPPRLPRPRPRPHLKPRP | 0.143
RRIRRRPPRLPRPRPRPTEWPRP | 0.446
RRIRSRPPRLPRPRPRPCTMPRP | -0.154
RRIRGRPPRLPRPRPRPARYPRP | 0.339
RRIRWRPPRLPRPRPRPSMAPRP | 0.266
RRIRIRPPRLPRPRPRPMPTPRP | 0.316
RRIRERPPRLPRPRPRPGMEPRP | 0.00479
RRIRKRPPRLPRPRPRPGPPPRP | 0.922

Sequence | shrunken log2 fold change
RRIRYRPPRLPRPRPRPPLTPRP | -0.403
RRIRFRPPRLPRPRPRPGADPRP | 0.187
RRIRCRPPRLPRPRPRPLMCPRP | -0.306
RRIRYRPPRLPRPRPRPMPCPRP | -0.0166
RRIRSRPPRLPRPRPRPCVRPRP | -0.103
RRIRVRPPRLPRPRPRPKWCPRP | 0.289
RRIRIRPPRLPRPRPRPTINPRP | -0.65
RRIRTRPPRLPRPRPRPGSHPRP | -0.336
RRIRCRPPRLPRPRPRPAYKPRP | -0.093
RRIRMRPPRLPRPRPRPATLPRP | 0.132
RRIRPRPPRLPRPRPRPCAAPRP | 0.888
RRIRQRPPRLPRPRPRPLRLPRP | 0.655
RRIRTRPPRLPRPRPRPDGDPRP | 0.052
RRIRKRPPRLPRPRPRPDYNPRP | -0.0745
RRIRWRPPRLPRPRPRPRTDPRP | 0.342
RRIRKRPPRLPRPRPRPKYAPRP | 0.208
RRIRERPPRLPRPRPRPGAHPRP | 0.0368
RRIRWRPPRLPRPRPRPLQMPRP | 0.161
RRIRWRPPRLPRPRPRPGYFPRP | -0.152
RRIRYRPPRLPRPRPRPLCIPRP | -1.22
RRIRQRPPRLPRPRPRPKVIPRP | -0.0316
RRIRKRPPRLPRPRPRPHERPRP | 0.231
RRIRFRPPRLPRPRPRPFDSPRP | -0.22
RRIRWRPPRLPRPRPRPPSEPRP | 0.456
RRIRGRPPRLPRPRPRPKDLPRP | -0.0839

Sequence | shrunken log2 fold change
RRIRVRPPRLPRPRPRPDHFPRP | -0.0417
RRIRGRPPRLPRPRPRPNIWPRP | 0.373
RRIRQRPPRLPRPRPRPRLFPRP | 0.701
RRIRTRPPRLPRPRPRPWMTPRP | -0.0339
RRIRWRPPRLPRPRPRPCHCPRP | -0.102
RRIRTRPPRLPRPRPRPPLPPRP | 0.33
RRIRPRPPRLPRPRPRPPNIPRP | -0.414
RRIRNRPPRLPRPRPRPARLPRP | 0.184
RRIRQRPPRLPRPRPRPCNQPRP | -0.213
RRIRRRPPRLPRPRPRPAGQPRP | 1.41
RRIRPRPPRLPRPRPRPMTMPRP | -0.469
RRIRERPPRLPRPRPRPRVSPRP | 0.0184
RRIRGRPPRLPRPRPRPKIEPRP | 0.566
RRIRPRPPRLPRPRPRPAYIPRP | -0.518
RRIRCRPPRLPRPRPRPKGWPRP | 0.811
RRIRMRPPRLPRPRPRPIKFPRP | -0.5
RRIRYRPPRLPRPRPRPTINPRP | -1.41
RRIRTRPPRLPRPRPRPGTTPRP | -0.342
RRIRERPPRLPRPRPRPCLMPRP | -0.0535
RRIRFRPPRLPRPRPRPWLYPRP | -1.2
RRIRARPPRLPRPRPRPTWGPRP | 0.625
RRIRARPPRLPRPRPRPKKAPRP | 0.285
RRIRDRPPRLPRPRPRPTCPPRP | -0.119
RRIRQRPPRLPRPRPRPRQEPRP | 0.0978
RRIRDRPPRLPRPRPRPGRRPRP | 0.311
